{"source": "paper PMC3498381", "about": "“Isolated Toll-like Receptor Transmembrane Domains Are Capable of Oligomerization” (PLoS ONE, 2012)", "molecules": {"B1": {"name": "TLR2 transmembrane domain (ToxR chimera) C609I (peptide)", "chain": "GNRASALVSGMCCALFLLILLTGVLIGSLIN"}}, "key": {"TMD5 D150A": {"target": "TMD5 D150A", "assay": "homotypic ToxR assay", "conditions": "higher signal = more homotypic TMD association; parent: est. 1.0; read off a plot"}, "[1]": {"target": "synthetic TLR6 transmembrane domain peptide, coumarin-labelled (human)", "assay": "AUC; sedimentation equilibrium; labelled peptide in density matched C14-betaine micelles (10 mM), 100 mM HEPES pH 7.4; FITC-TLR2 read at 495 nm, coumarin-TLR6 at 400 nm; for the heterotypic run FITC-TLR2 with 2 equiv. of coumarin-TLR6; global fit"}, "[2]": {"target": "synthetic TLR6 transmembrane domain peptide, coumarin-labelled (human)", "assay": "FRET or BRET; coumarin-TLR1 or -TLR6 peptide (donor) fixed at 20 nM, fluorescein-TLR2 peptide (acceptor) titrated 0-1500 nM; 1 mM C14-betaine micelles, 100 mM HEPES pH 7.4; excitation 415 nm; Hill equation"}, "[3]": {"target": "synthetic TLR1 transmembrane domain peptide, coumarin-labelled (human)", "assay": "FRET or BRET; coumarin-TLR1 or -TLR6 peptide (donor) fixed at 20 nM, fluorescein-TLR2 peptide (acceptor) titrated 0-1500 nM; 1 mM C14-betaine micelles, 100 mM HEPES pH 7.4; excitation 415 nm; Hill equation"}, "[4]": {"target": "synthetic TLR2 transmembrane domain peptide, fluorescein-labelled (human)", "assay": "AUC; sedimentation equilibrium; labelled peptide in density matched C14-betaine micelles (10 mM), 100 mM HEPES pH 7.4; FITC-TLR2 read at 495 nm, coumarin-TLR6 at 400 nm; for the heterotypic run FITC-TLR2 with 2 equiv. of coumarin-TLR6; global fit"}, "TLR2 G593A": {"target": "TLR2 G593A", "assay": "homotypic ToxR assay", "conditions": "higher signal = more homotypic TMD association; parent: est. 1.0; read off a plot"}, "[5]": {"target": "T1, TLR6 transmembrane domain (ToxR chimera)", "T1 chain": "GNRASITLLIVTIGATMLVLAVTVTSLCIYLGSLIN", "assay": "heterotypic ToxR assay", "conditions": "chain shown with the change; competitor TLR6* (nonfunctional ToxR* chimera); PolyLeu* = 1.0; lower signal = more ToxR inhibition = more interaction; parent: est. 0.24; read off a plot"}, "[6]": {"target": "T2, TLR5 transmembrane domain (ToxR chimera)", "T2 chain": "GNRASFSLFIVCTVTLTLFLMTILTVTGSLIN", "assay": "heterotypic ToxR assay", "conditions": "chain shown with the change; competitor TLR5* (nonfunctional ToxR* chimera); PolyLeu* = 1.0; lower signal = more ToxR inhibition = more interaction; parent: est. 0.53; read off a plot"}, "[7]": {"target": "T3, TLR2 transmembrane domain (ToxR chimera)", "T3 chain": "B1 chain with I26C", "assay": "heterotypic ToxR assay", "conditions": "chain shown with the change; competitor TLR2* (nonfunctional ToxR* chimera); PolyLeu* = 1.0; lower signal = more ToxR inhibition = more interaction; parent: est. 0.42; read off a plot"}, "[8]": {"target": "T4, TLR10 transmembrane domain (ToxR chimera)", "T4 chain": "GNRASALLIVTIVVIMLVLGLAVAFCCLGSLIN", "assay": "heterotypic ToxR assay", "conditions": "chain shown with the change; competitor TLR10* (nonfunctional ToxR* chimera); PolyLeu* = 1.0; lower signal = more ToxR inhibition = more interaction; parent: est. 0.41; read off a plot"}, "[9]": {"target": "T5, TLR4 transmembrane domain (ToxR chimera)", "T5 chain": "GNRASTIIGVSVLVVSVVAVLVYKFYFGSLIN", "assay": "heterotypic ToxR assay", "conditions": "chain shown with the change; competitor TLR4* (nonfunctional ToxR* chimera); PolyLeu* = 1.0; lower signal = more ToxR inhibition = more interaction; parent: est. 0.90; read off a plot"}, "[10]": {"target": "T6, TLR1 transmembrane domain (ToxR chimera)", "T6 chain": "T1 chain with G14V, I29S", "assay": "heterotypic ToxR assay", "conditions": "chain shown with the change; competitor TLR1* (nonfunctional ToxR* chimera); PolyLeu* = 1.0; lower signal = more ToxR inhibition = more interaction; parent: est. 0.47; read off a plot"}, "[11]": {"target": "T7, TLR2 transmembrane domain C609I (ToxR chimera), O60603", "T7 chain": "B1 chain", "assay": "homotypic ToxR assay", "conditions": "chain shown with the change; higher signal = more homotypic TMD association; parent: est. 1.0; read off a plot"}}, "note": "Positions count from the first letter of the chain named. In names and notes the source's numbering stands. Several values for one entry are separate records, joined by “and”; a condition that tells them apart may be missing. Identical values can stand only once."}
{"molecule": "TMD5 from latent membrane protein 1 (ToxR* chimera) D150A", "values": [{"measurement": "response (normalized Miller units)", "setting": "TMD5 D150A", "result": 0.59}]}
{"molecule": "synthetic TLR6 transmembrane domain peptide, coumarin-labelled", "values": [{"measurement": "stoichiometry N", "setting": "[1]", "result": 2}]}
{"molecule": "synthetic TLR2 transmembrane domain peptide, fluorescein-labelled", "values": [{"measurement": "Kd", "setting": "[2]", "result": 286, "unit": "nM"}, {"measurement": "Kd", "setting": "[3]", "result": 231, "unit": "nM"}, {"measurement": "stoichiometry N", "setting": "[4]", "result": "2 and 4"}]}
{"molecule": "TLR2 transmembrane domain (ToxR chimera) G593A", "values": [{"measurement": "response (normalized Miller units)", "setting": "TLR2 G593A", "result": 1.1}]}
{"molecule": "B1", "values": [{"measurement": "response (normalized Miller units)", "setting": "[5]", "result": 0.82}, {"measurement": "response (normalized Miller units)", "setting": "[6]", "result": 0.81}, {"measurement": "response (normalized Miller units)", "setting": "[7]", "result": 0.55}, {"measurement": "response (normalized Miller units)", "setting": "[8]", "result": 0.63}, {"measurement": "response (normalized Miller units)", "setting": "[9]", "result": 0.88}, {"measurement": "response (normalized Miller units)", "setting": "[10]", "result": 0.78}, {"measurement": "response (normalized Miller units)", "setting": "[11]", "result": 1.1}]}
